The values below come from patent US20220119534A1 (DRAGONFLY THERAPEUTICS, published 2022).

Where “and” joins values, the source holds several entries; their conditions need not be identical. Identical values can stand only once.

In assay [1] the target is T1, mFc-cNKG2D (cynomolgus monkey, UniProt P61252 73-216).
T1 construct: extracellular domain; Made in house (Dragonfly Tx); also called recombinant cyno NKG2D extracellular domain (ECD); mFc-tagged cyno NKG2D dimer; not shown: mouse Fc tag
T1 sequence (looked up): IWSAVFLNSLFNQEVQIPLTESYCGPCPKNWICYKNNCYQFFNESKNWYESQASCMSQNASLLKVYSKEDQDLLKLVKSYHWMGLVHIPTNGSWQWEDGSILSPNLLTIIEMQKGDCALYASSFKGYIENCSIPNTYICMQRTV
As to the kind of experiment: SPR Biacore 37 C; mFc-tagged cyno NKG2D dimer, TriNKET as analyte; steady state affinity fit; average of 4.

In assay [2] the target is T2, Human CLEC12A-His (human, UniProt Q5QGZ9 65-265).
T2 construct: Recombinant soluble protein made in house (Dragonfly Tx); The hCLEC12A spot of the HuProt array is written under this molecule as well; also called hCLEC12A-His; hCLEC12A; not shown: His tag
T2 sequence: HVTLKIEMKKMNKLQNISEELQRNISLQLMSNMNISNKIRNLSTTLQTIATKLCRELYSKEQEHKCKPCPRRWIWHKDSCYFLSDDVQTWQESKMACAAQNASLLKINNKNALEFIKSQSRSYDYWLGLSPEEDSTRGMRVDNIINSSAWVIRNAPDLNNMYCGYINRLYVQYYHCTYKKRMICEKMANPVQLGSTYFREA
As to the kind of experiment: SPR Biacore 8K 37 C; TriNKET captured on anti-hFc chip, hCLEC12A-His as analyte; 1:1 fit; after 0.02% H2O2 24 h, n=2.

The target in assay [3] is T1, mFc-cNKG2D. Kind of assay: SPR Biacore 37 C; mFc-tagged cyno NKG2D dimer, TriNKET as analyte; kinetics fit.
Assay [4] deals with T2, Human CLEC12A-His. Kind of assay: SPR Biacore 8K 37 C; TriNKET captured on anti-hFc chip, hCLEC12A-His as analyte; classical 1:1 fit.
Method: Briefly, human Fc specific antibodies were covalently immobilized at a density ˜8000-10000 resonance units (RU) on carboxy methyl dextran matrix of a CM5 biosensor chip via amine-coupling chemistry to create an anti-hFc IgG chip. […] Association was monitored for 300 seconds and dissociation was monitored for 600 seconds. Surfaces were regenerated between cycles with three pulses of 10 mM glycine-HCl, pH 1.7 injected for 20 seconds at 100 μL/min. HBS-EP+ (1×) with 0.1 mg/mL BSA buffer was used throughout the experiment. Data were analyzed using Biacore 8K Insight Evaluation software (GE Healthcare).

B1: F3'-1602 TriNKET (bispecific antibody, human IgG1, kappa)
chain: QLQLQESGPGLVKPSETLSLTCTVSGFSLTNYGLHWIRQPPGKCLEWIGVIWSGGKTDYNPSLKSRVTISKDTSKNQFSLKLSSVQAADTAVYYCAKYDYDDSLDYWGQGTLVTVSSGGGGSGGGGSGGGGSGGGGSDIQMTQSPSSLSASVGDRVTITCHASQNINFWLSWYQQKPGKAPKLLIYEASNLHTGVPSRFSGSGSGTRFTLTISSLQPEDIATYYCQQSHSYPLTFGCGTKLEIKGSDKTHTCPPCPAPELLGGPSVFLFPPKPKDTLMISRTPEVTCVVVDVSHEDPEVKFNWYVDGVEVHNAKTKPREEQYNSTYRVVSVLTVLHQDWLNGKEYKCKVSNKALPAPIEKTISKAKGQPREPRVYTLPPCRDELTKNQVSLTCLVKGFYPSDIAVEWESNGQPENNYKTTPPVLVSDGSFTLYSKLTVDKSRWQQGNVFSCSVMHEALHNHYTQKSLSLSPG
heavy: EVQLVESGGGLVKPGGSLRLSCAASGFTFSSYSMNWVRQAPGKGLEWVSSISSSSSYIYYADSVKGRFTISRDNAKNSLYLQMNSLRAEDTAVYYCARGAPIGAAAGWFDPWGQGTLVTVSSASTKGPSVFPLAPSSKSTSGGTAALGCLVKDYFPEPVTVSWNSGALTSGVHTFPAVLQSSGLYSLSSVVTVPSSSLGTQTYICNVNHKPSNTKVDKKVEPKSCDKTHTCPPCPAPELLGGPSVFLFPPKPKDTLMISRTPEVTCVVVDVSHEDPEVKFNWYVDGVEVHNAKTKPREEQYNSTYRVVSVLTVLHQDWLNGKEYKCKVSNKALPAPIEKTISKAKGQPREPQVCTLPPSRDELTENQVSLTCLVKGFYPSDIAVEWESNGQPENNYKTTPPVLDSDGSFFLYSWLTVDKSRWQQGNVFSCSVMHEALHNHYTQKSLSLSPG
light: DIQMTQSPSSVSASVGDRVTITCRASQGISSWLAWYQQKPGKAPKLLIYAASSLQSGVPSRFSGSGSGTDFTLTISSLQPEDFATYYCQQGVSFPRTFGGGTKVEIKRTVAAPSVFIFPPSDEQLKSGTASVVCLLNNFYPREAKVQWKVDNALQSGNSQESVTEQDSKDSTYSLSSTLTLSKADYEKHKVYACEVTHQGLSSPVTKSFNRGEC
notes: Trispecific F3' format: CLEC12A scFv-Fc paired with NKG2D Fab-Fc; Stressed and control samples of the stability studies are the same molecule; also called AB0237
Consider B1, for which the Kd in the assay with mFc-cNKG2D [1] was 828 nM; with Human CLEC12A-His [2] it was 1.1 nM; with mFc-cNKG2D [3], 831 nM and 825 nM and 931 nM and 769 nM; in the assay with Human CLEC12A-His [4], 0.8 nM. For the same molecule, the koff in the assay with Human CLEC12A-His [2] stood at 0.00087 s⁻¹; with Human CLEC12A-His [4], 0.000895 s⁻¹. The kon with Human CLEC12A-His [2] was 806000 M⁻¹ s⁻¹; with Human CLEC12A-His [4], 1.11e+06 M⁻¹ s⁻¹.
